Data published in patent US20100260668A1 (published 2010).
“And” between values parts separate entries of the source, which are not always exact repeats. Identical values can stand only once. One block for each binder: values may come before it.

Tests used:
[1] = target: T1, VEGF (VEGF 1-165 aa, R&D Systems 293-VE-010) (UniProt P15692 27-191); experiment: Direct bind ELISA, VEGF coated on plate; VEGF domain C-term., HC short/LC short
T1 construct: bought reagent; also called vascular endothelial growth factor

ErbB3 on A431 cells [2] = target: T2, ErbB3 on A431 cells (human, UniProt P21860 20-1342); experiment: cell-based or functional assay
ErbB3 on A431 cells [3] = target: T2, ErbB3 on A431 cells; experiment: cell-based or functional assay; remark: listed apart in the source
HGF [4] = target: T3, HGF (UniProt P14210 32-728); experiment: SPR (Biacore); parent antibody
IGF1R ECD = target: T4, IGF1R ECD (UniProt P08069 31-935, limits assumed); experiment: Biacore SPR
T4 construct: extracellular domain; Bought reagent

HGF [5] = target: T3, HGF; experiment: SPR (Biacore); C-terminal VD
recombinant human HGF = target: T5, recombinant human HGF (human, UniProt P14210 32-728); experiment: competition ELISA: DVD-Ig co-incubated with 2 nM soluble c-Met Fc on coated HGF (competitor c-Met Fc)
T5 construct: The target there is entered as this HGF; also called hepatocyte growth factor

PlGF (Placental GF) = target: T6, PlGF (Placental GF) (UniProt P49763-2 21-149, limits assumed); experiment: SPR (Biacore); parent antibody
T6 sequence (looked up): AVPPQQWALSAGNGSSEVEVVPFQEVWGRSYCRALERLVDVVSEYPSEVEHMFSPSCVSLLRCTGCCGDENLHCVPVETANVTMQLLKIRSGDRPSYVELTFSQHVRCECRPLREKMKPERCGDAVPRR

IGF-I = target: T7, IGF-I (UniProt P05019 49-118); experiment: Biacore SPR
T7 construct: Bought reagent; also called IGF1

IGF-2 = target: T8, IGF-2 (UniProt P01344 25-91); experiment: Biacore SPR
T8 construct: Bought reagent

[6] = target: NRP1 (Neuropilin-1 Npn-1-His tag) (UniProt O14786-2 22-644); experiment: SPR (Biacore); parent antibody
[7] = target: T9, DLL4 (DLL4 ECD/His tag, R&D Systems 1506-D4-050) (UniProt Q9NR61 27-529); experiment: Direct bind ELISA on DLL4; DLL4 domain C-term., HC short, LC long
T9 construct: extracellular domain; not shown: His tag

T5 sequence (P14210 32-728 limits assumed): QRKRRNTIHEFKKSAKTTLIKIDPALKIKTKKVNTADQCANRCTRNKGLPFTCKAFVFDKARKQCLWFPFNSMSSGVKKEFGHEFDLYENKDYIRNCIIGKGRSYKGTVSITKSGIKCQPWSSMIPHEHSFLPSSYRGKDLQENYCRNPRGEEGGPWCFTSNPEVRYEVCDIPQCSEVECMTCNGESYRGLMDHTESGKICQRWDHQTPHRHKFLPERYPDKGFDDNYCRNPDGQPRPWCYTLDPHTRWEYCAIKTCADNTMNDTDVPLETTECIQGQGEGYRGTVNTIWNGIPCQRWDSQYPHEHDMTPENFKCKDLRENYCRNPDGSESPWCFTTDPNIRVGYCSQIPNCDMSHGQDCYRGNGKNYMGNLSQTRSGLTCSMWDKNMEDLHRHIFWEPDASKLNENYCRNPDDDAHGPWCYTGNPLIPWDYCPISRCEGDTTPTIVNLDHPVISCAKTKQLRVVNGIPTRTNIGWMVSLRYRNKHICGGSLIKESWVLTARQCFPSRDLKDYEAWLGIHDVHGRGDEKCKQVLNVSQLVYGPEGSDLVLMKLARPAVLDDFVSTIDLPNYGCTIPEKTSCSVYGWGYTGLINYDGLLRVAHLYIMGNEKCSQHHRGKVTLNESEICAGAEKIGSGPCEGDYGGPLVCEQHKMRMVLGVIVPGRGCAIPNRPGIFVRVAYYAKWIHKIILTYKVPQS
T3 sequence (P14210 32-728 limits assumed): as above
T1 sequence (P15692 other isoform, or with tags, fused parts or gaps limits assumed): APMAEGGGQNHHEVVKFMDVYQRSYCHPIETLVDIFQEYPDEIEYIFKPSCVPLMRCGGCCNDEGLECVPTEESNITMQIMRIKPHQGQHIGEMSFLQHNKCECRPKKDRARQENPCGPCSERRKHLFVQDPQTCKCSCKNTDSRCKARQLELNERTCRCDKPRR

- EC50 [1]: 58.5 nM
B1: DVD513 (bispecific antibody, human IgG1, kappa)
heavy: not shown
light: QAVVTQESALTTSPGETVTLTCRSSTGAVTTSNYANWVQEKPDHLFTGLIGGTNNRAPGVPARFSGSLIGDKAALTITGAQTEDEAIYFCALWYSNHWVFGGGTKLTVLGQPKAAPDIQMTQSPSSLSASVGDRVTITCRASQDVSTAVAWYQQKPGKAPKLLIYSASFLYSGVPSRFSGSGSGTDFTLTISSLQPEDFATYYCQQSYTTPPTFGQGTKVEIKRTVAAPSVFIFPPSDEQLKSGTASVVCLLNNFYPREAKVQWKVDNALQSGNSQESVTEQDSKDSTYSLSSTLTLSKADYEKHKVYACEVTHQGLSSPVTKSFNRGEC
notes: DVD-Ig; N-term; AB073 (DLL4), C-term; AB070 (VEGF); HC linker short, LC linker short; also called DVD-Ig DVD513; DVD513H/DVD513L

- Inhibition Of EGFR Phosphorylation (% Inhibition At 60 nM Ab/DVD) (ErbB3 on A431 cells [2]): 0%
- Inhibition Of ErbB3 Phosphorylation (% Inhibition At 60 nM Ab/DVD) (ErbB3 on A431 cells [2]): 72%
- Inhibition Of A431 Proliferation (% Inhibition At 2.4 nM Ab/DVD) (ErbB3 on A431 cells [3]): 14%
- Inhibition Of A431 Proliferation (% Inhibition At 21.6 nM Ab/DVD) (ErbB3 on A431 cells [3]): 27%
B2: AB062 (anti-ErbB3 (seq. 1) parent antibody) (antibody, human IgG1, kappa, V domains shown)
VH: QVQLQQWGAGLLKPSETLSLTCAVYGGSFSGYYWSWIRQPPGKGLEWIGEINHSGSTNYNPSLKSRVTISVETSKNQFSLKLSSVTAADTAVYYCARDKWTWYFDLWGRGTLVTVSS
VL: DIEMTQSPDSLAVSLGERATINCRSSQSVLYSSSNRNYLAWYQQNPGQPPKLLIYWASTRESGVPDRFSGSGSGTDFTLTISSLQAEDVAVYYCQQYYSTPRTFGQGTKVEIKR

- Kd (HGF [5]): 0.901 nM
- koff (HGF [5]): 0.000166 s⁻¹
- kon (HGF [5]): 184000 M⁻¹ s⁻¹
B5: DVD045 (bispecific antibody, human IgG1, kappa)
heavy: not shown
light: DIQMTQSPSSLSASVGDRVTITCSASQDISNYLNWYQQKPGKAPKVLIYFTSSLHSGVPSRFSGSGSGTDFTLTISSLQPEDFATYYCQQYSTVPWTFGQGTKVEIKRTVAAPDIQMTQSPSSVSASVGDRVTITCRASQGISSWLAWYQQKPGKAPNLLIYEASSLQSGVPSRFGGSGSGTDFTLTISSLQPEDFATYYCQQANGFPWTFGQGTKVEIKRTVAAPSVFIFPPSDEQLKSGTASVVCLLNNFYPREAKVQWKVDNALQSGNSQESVTEQDSKDSTYSLSSTLTLSKADYEKHKVYACEVTHQGLSSPVTKSFNRGEC
notes: N-terminal VD VEGF, C-terminal VD HGF; also called DVD045H; DVD045L

- IC50 (recombinant human HGF): > 100 nM
B6: DVD045 (VEGF (seq. 1) N-terminal / HGF (seq. 1) C-terminal DVD-Ig, linker set 1) (bispecific antibody, human IgG1, kappa)
heavy: not shown
light: B5 light
notes: also called DVD045H/DVD045L

- IC50 (recombinant human HGF): 0.34 nM
B7: DVD034 (HGF (seq. 1) N-terminal / RON (seq. 1) C-terminal DVD-Ig) (bispecific antibody, human IgG1, kappa)
heavy: not shown
light: DIQMTQSPSSVSASVGDRVTITCRASQGISSWLAWYQQKPGKAPNLLIYEASSLQSGVPSRFGGSGSGTDFTLTISSLQPEDFATYYCQQANGFPWTFGQGTKVEIKRTVAAPDVVMTQSPLSLPVTPGEPASISCRSSQSLLHSNGFNYVDWYLQKPGQSPHLLIYFGSYRASGVPDRFSGSGSGTDFTLKISRVEAEDVGVYYCMQALQTPPWTFGQGTKVEIRRTVAAPSVFIFPPSDEQLKSGTASVVCLLNNFYPREAKVQWKVDNALQSGNSQESVTEQDSKDSTYSLSSTLTLSKADYEKHKVYACEVTHQGLSSPVTKSFNRGEC
notes: also called DVD034H/DVD034L

- Kd (PlGF (Placental GF)): 0.0285 nM
- koff (PlGF (Placental GF)): 0.000108 s⁻¹
- kon (PlGF (Placental GF)): 3.8e+06 M⁻¹ s⁻¹
B8: AB047 (antibody, human IgG1, kappa, V domains shown)
VH: QVQLQQSGAELVKPGASVKISCKASGYTFTDYYINWVKLAPGQGLEWIGWIYPGSGNTKYNEKFKGKATLTIDTSSSTAYMQLSSLTSEDTAVYFCVRDSPFFDYWGQGTLLTVSS
VL: DIVLTQSPDSLAVSLGERVTMNCKSSQSLLNSGMRKSFLAWYQQKPGQSPKLLIYWASTRESGVPDRFTGSGSGTDFTLTISSVQAEDVAVYYCKQSYHLFTFGSGTKLEIKR
notes: also called AB047VH; AB047VL

- IC50 (recombinant human HGF): 8.7 nM
B12: DVD033 (RON (seq. 1) N-terminal / HGF (seq. 1) C-terminal DVD-Ig) (bispecific antibody, human IgG1, kappa)
heavy: not shown
light: DVVMTQSPLSLPVTPGEPASISCRSSQSLLHSNGFNYVDWYLQKPGQSPHLLIYFGSYRASGVPDRFSGSGSGTDFTLKISRVEAEDVGVYYCMQALQTPPWTFGQGTKVEIRRTVAAPDIQMTQSPSSVSASVGDRVTITCRASQGISSWLAWYQQKPGKAPNLLIYEASSLQSGVPSRFGGSGSGTDFTLTISSLQPEDFATYYCQQANGFPWTFGQGTKVEIKRTVAAPSVFIFPPSDEQLKSGTASVVCLLNNFYPREAKVQWKVDNALQSGNSQESVTEQDSKDSTYSLSSTLTLSKADYEKHKVYACEVTHQGLSSPVTKSFNRGEC
notes: also called DVD033H/DVD033L

Second part, the binder before the results:

B3: AB012 (antibody, human IgG1, kappa, V domains shown)
VH: QVQLVESGGGLVKPGGSLRLSCAASGFTFSDYYMSWIRQAPGKGLEWVSYISSSGSTIYYADSVKGRFTISRDNAKNSLYLQMNSLRAEDTAVYYCARDEYNSGWYVLFDYWGQGTLVTVSS
VL: DIQMTQSPSSVSASVGDRVTITCRASQGISSWLAWYQQKPGKAPNLLIYEASSLQSGVPSRFGGSGSGTDFTLTISSLQPEDFATYYCQQANGFPWTFGQGTKVEIKR
notes: also called AB012VH; AB012VL
- Kd (HGF [4]): < 0.0284 nM
- koff (HGF [4]): 0.000284 s⁻¹
- kon (HGF [4]): > 1e+07 M⁻¹ s⁻¹

B4: AB011 (antibody, human IgG1, kappa, V domains shown)
VH: EVQLLESGGGLVQPGGSLRLSCTASGFTFSSYAMNWVRQAPGKGLEWVSAISGSGGTTFYADSVKGRFTISRDNSRTTLYLQMNSLRAEDTAVYYCAKDLGWSDSYYYYYGMDVWGQGTTVTVSS
VL: DIQMTQFPSSLSASVGDRVTITCRASQGIRNDLGWYQQKPGKAPKRLIYAASRLHRGVPSRFSGSGSGTEFTLTISSLQPEDFATYYCLQHNSYPCSFGQGTKLEIKR
- Kd (IGF1R ECD): 0.848 nM
- koff (IGF1R ECD): 6.21e-05 s⁻¹
- kon (IGF1R ECD): 73200 M⁻¹ s⁻¹

B9: AB010 (antibody, human IgG1, lambda, V domains shown)
VH: QVQLVQSGAEVKKPGASVKVSCKASGYTFTSYDINWVRQATGQGLEWMGWMNPNSGNTGYAQKFQGRVTMTRNTSISTAYMELSSLRSEDTAVYYCARDPYYYYYGMDVWGQGTTVTVSS
VL: QSVLTQPPSVSAAPGQKVTISCSGSSSNIENNHVSWYQQLPGTAPKLLIYDNNKRPSGIPDRFSGSKSGTSATLGITGLQTGDEADYYCETWDTSLSAGRVFGGGTKLTVLG
notes: also called anti-IGF1,2 parent antibody
- Kd (IGF-I): 0.388 nM
- koff (IGF-I): 0.00123 s⁻¹
- kon (IGF-I): 3.17e+06 M⁻¹ s⁻¹
- Kd (IGF-2): 0.000423 nM and < 0.000299 nM
- koff (IGF-2): 2.74e-06 s⁻¹ and < 1e-06 s⁻¹
- kon (IGF-2): 6.47e+06 M⁻¹ s⁻¹ and 3.35e+06 M⁻¹ s⁻¹

B10: AB016 (antibody, human IgG1, kappa, V domains shown)
VH: EVQLVESGGGLVQPGGSLRLSCAASGFSFSSEPISWVRQAPGKGLEWVSSITGKNGYTYYADSVKGRFTISADTSKNTAYLQMNSLRAEDTAVYYCARWGKKVYGMDVWGQGTLVTVSS
VL: DIQMTQSPSSLSASVGDRVTITCRASQSISSYLAWYQQKPGKAPKLLIYGASSRASGVPSRFSGSGSGTDFTLTISSLQPEDFATYYCQQYMSVPITFGQGTKVEIKR
notes: also called AB016VH; AB016VL
- Kd [6]: 2.67 nM
- koff [6]: 0.00039 s⁻¹
- kon [6]: 147000 M⁻¹ s⁻¹

B11: DVD508 (VEGF/DLL4 DVD-Ig) (bispecific antibody, human IgG1)
VH: EVQLVESGGGLVQPGGSLRLSCAASGFTISDYWIHWVRQAPGKGLEWVAGITPAGGYTYYADSVKGRFTISADTSKNTAYLQMNSLRAEDTAVYYCARFVFFLPYAMDYWGQGTLVTVSSASTKGPEVQLQQSGPELVKPGASVKMSCKASGYTFTSYVINWVKQKPGQGLEWIGLINPYNDGTKYNEKFKVKATLTSDKSSSTAYMELSSLTSEDSAVYYCASYYYGSRYYFDYWGQGTTLTVSS
VL: DIQMTQSPSSLSASVGDRVTITCRASQDVSTAVAWYQQKPGKAPKLLIYSASFLYSGVPSRFSGSGSGTDFTLTISSLQPEDFATYYCQQSYTTPPTFGQGTKVEIKRTVAAPSVFIFPPDIQMTQSSSYLSVSLGGRVTITCKASDHINNWLAWYQQKPGNAPRLLISGATSLETGVPSRFSGSGSGKDYTLSITSLQTEDVATYYCQQYWSIPLTFGAGTKLELKR
notes: HC linker short, LC linker long; also called DVD508H; DVD508L
- EC50 [7]: 0.61 nM
